Reference: patent US20260256923, “NEW RECRUITMENT ELEMENT OF UBIQUITIN LIGASE AND USE THEREOF” (SHENZHEN LINGGENE BIOTECH CO., LTD., published 2026)

Assays:
Nucleolin (NCL) = Nucleolin (NCL) (Homo sapiens, UniProt P19338 P19338:2-710); test: pulldown; 400 nM oligo, with MDM2, 4 C; settings: tags: ACROBiosystems NUL-H5253, label: 5'-biotin
Protocol: (§1) 6 μg/mL recombinant human NCL and 6 μg/mL recombinant human MDM2 were mixed well and incubated at 4° C. for 7 h. Subsequently, 400 nM CRO, AS1411, or iSN04 labeled by biotin at the 5′ end was added, and the mixture was incubated at 4° C. for 6 h. Streptavidin agarose gel beads (purchased from cytiva, Cat. No.: 17511301) were added, and the mixture was further incubated at 4° C. overnight. The gel beads were washed 4 times with a TBST buffer, and an SDS-PAGE protein loading buffer (purchased from Beyotime, Cat. No.: P0015) was added. The mixture was heated to 100° C. and held for 10 min. After centrifugation, the supernatant was collected. The pull-down product was then detected by western blot assay.

MDM2 [1] = molecular target: T1, MDM2 (Homo sapiens, UniProt Q00987 Q00987:1-491); test: pulldown; NCL present; settings: tags: R&D Systems E3-202-050; label: 5'-biotin
T1 sequence (Q00987 whole entry, one chain of several): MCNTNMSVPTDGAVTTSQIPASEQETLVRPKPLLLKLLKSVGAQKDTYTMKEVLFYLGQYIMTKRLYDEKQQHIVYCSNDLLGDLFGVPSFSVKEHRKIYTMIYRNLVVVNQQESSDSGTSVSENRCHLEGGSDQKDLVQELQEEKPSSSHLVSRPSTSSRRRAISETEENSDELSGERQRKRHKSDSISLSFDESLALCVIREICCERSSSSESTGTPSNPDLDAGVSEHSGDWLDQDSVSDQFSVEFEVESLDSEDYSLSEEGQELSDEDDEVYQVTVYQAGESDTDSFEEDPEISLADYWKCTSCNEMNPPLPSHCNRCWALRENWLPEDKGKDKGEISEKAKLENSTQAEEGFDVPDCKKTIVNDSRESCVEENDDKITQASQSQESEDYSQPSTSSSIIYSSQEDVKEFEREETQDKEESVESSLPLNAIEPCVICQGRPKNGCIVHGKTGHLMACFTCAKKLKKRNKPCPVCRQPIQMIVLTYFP
Protocol: as §1

MDM2 [2] = molecular target: T1, MDM2; test: pulldown; NCL present; iSN04 blocks NCL-MDM2 interaction; settings: tags: R&D Systems E3-202-050; label: 5'-biotin; weak G4 only with K+
Protocol: as §1

Sequence of Nucleolin (NCL) (P19338 2-710, one chain of several): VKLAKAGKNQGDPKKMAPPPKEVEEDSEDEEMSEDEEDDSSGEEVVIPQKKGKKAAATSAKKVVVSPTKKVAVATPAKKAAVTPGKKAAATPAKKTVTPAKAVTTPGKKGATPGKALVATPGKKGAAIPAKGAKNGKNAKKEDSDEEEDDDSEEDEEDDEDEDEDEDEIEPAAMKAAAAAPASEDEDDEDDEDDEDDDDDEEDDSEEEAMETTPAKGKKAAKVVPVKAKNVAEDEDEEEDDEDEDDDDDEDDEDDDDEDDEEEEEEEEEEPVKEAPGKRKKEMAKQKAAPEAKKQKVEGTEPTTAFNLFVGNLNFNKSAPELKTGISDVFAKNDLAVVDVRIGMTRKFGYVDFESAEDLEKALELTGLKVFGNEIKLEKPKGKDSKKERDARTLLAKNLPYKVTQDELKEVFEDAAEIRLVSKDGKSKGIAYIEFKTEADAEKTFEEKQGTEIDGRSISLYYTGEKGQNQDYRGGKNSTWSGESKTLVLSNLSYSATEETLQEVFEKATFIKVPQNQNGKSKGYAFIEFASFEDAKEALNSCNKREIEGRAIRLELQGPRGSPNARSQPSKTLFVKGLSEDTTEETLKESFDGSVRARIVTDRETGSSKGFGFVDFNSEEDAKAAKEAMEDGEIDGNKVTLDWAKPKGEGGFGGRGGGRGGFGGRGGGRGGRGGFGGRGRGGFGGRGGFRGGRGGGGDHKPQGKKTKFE

Row | Binder | binding result (Nucleolin (NCL)) | binding result (MDM2 [1]) | binding result (Nucleolin (NCL); weak G4 only with K+) | binding result (MDM2 [2])
1 | CCTCCTCCTCCTTCTCCTCCTCCTCC (ssDNA) [CRO] | no binding | no binding |  | 
2 | AGATTAGGGTGAGGGTGA (ssDNA) [iSN04] |  |  | binds | no binding
